Source: US12624112 (MABWELL SHANGHAI BIOSCIENCE, dated 2026)

Legend:
Human ST2-his [1] = target: T1, Human ST2-his (human, UniProt Q01638-2 19-328, limits assumed); test: SPR Biacore X100, ratio of kd at pH 5.5 to kd at pH 7.4
T1 construct: Expressed in CHO-K1; The printed range starts at Met1; also called human ST2 fused with a 6-histidine tag at the C-terminus
T1 sequence: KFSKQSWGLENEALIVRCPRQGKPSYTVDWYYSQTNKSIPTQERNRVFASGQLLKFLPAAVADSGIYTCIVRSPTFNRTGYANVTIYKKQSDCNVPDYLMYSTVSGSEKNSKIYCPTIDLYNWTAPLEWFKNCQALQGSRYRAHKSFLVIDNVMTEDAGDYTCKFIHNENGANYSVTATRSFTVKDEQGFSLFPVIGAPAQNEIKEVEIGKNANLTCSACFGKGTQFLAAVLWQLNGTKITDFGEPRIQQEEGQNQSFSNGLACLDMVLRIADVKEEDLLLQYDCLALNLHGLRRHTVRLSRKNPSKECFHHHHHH
Method: (§1) The experiment on the interaction between the anti-human ST2 antibodies and human ST2-his was performed using Biacore X100.
(§2) Each anti-human ST2 antibody was diluted to 2 µg/mL and captured on the surface of a protein A chip for a capture time of 60 s. Following the antibody capture, a solution of human ST2-his (2-fold gradient dilution from a starting concentration of 20 nM, to obtain 6 concentrations in total) was injected. Association was monitored for 180 s and dissociation was monitored for 700 s, and the sensor surface was regenerated by injecting a solution of glycine at pH 2.0. Kinetic data were analyzed using a simple 1:1 binding model.

[2] = target: T2, ST2 on the effector cells (KU812, KU812/NF-κB-1#, HUVEC, HMC-1) (human, UniProt Q01638 19-556); test: cell-based or functional assay
T2 sequence (looked up): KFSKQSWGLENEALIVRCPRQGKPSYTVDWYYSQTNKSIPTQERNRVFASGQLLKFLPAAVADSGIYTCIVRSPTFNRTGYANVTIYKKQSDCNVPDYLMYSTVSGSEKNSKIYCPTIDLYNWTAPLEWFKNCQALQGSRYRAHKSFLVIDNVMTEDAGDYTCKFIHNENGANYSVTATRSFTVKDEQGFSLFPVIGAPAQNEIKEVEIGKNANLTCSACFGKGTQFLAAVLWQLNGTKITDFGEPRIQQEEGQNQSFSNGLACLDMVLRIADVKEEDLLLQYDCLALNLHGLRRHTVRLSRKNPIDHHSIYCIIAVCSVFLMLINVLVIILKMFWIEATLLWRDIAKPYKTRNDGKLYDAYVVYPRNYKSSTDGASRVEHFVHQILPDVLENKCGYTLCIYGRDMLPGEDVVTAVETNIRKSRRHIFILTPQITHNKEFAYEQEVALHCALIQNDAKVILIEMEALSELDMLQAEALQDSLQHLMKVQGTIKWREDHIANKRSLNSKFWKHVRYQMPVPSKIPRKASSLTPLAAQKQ

Human ST2-his [3] = target: T1, Human ST2-his; test: SPR Biacore X100, antibody captured on protein A chip, human ST2-his injected, pH 7.4
Method: as §1, §2

[4] = target: T2, ST2 on the effector cells (KU812, …); test: cell-based or functional assay; remark: listed apart in the source
[5] = target: T2, ST2 on the effector cells (KU812, …); test: cell-based or functional assay; remark: listed apart in the source
[6] = target: T2, ST2 on the effector cells (KU812, …); test: cell-based or functional assay; remark: listed apart in the source
Human ST2-fc (human) = Human ST2-fc (human) (UniProt Q01638); test: competition ELISA, coated ST2-fc, competitor IL33-his
Human ST2-his [7] = target: T1, Human ST2-his; test: SPR Biacore X100, antibody captured on protein A chip, human ST2-his injected, dissociation at pH 5.5
Method: as §1, §2

[8] = target: T2, ST2 on the effector cells (KU812, …); test: cell-based or functional assay; remark: listed apart in the source

kd ratio of pH 5.5/pH 7.4 (Human ST2-his [1]): 7.26
IC50, inhibition of KU812-IL5 production promoted by IL-33 (human IL33-his) [2]: 0.0874 µg/mL
Maximum inhibition rate, KU812-IL5 production by IL-33 [2]: 99.4%
Relative activity compared with CNTO7160, KU812-IL5 production by IL-33 [2]: 131%
Kd (Human ST2-his [3]): 0.452 nM
koff (Human ST2-his [3]): 0.000351 s⁻¹
kon (Human ST2-his [3]): 777000 M⁻¹ s⁻¹
IC50, inhibition of HUVEC-IL6 production promoted by IL33 [4]: 16.1 µg/mL
Maximum inhibition rate, HUVEC-IL6 production by IL33 [4]: 83%
Relative activity, HUVEC-IL6 production by IL33 [4]: 16.9%
IC50, inhibition of KU812-IL5 production promoted by reduced IL33 [5]: 2.87 µg/mL
Maximum inhibition rate, KU812-IL5 production by reduced IL33 [5]: 96.7%
Relative activity, KU812-IL5 production by reduced IL33 [5]: 51.1%
IC50, inhibition of HMC-1 IL8 production promoted by IL33 [6]: 0.334 µg/mL
Maximum inhibition rate, HMC-1 IL8 production by IL33 [6]: 85.6%
Relative activity, HMC-1 IL8 production by IL33 [6]: 30.1%
IC50 (Human ST2-fc (human)): 0.465 µg/mL
Maximum inhibition rate (Human ST2-fc (human)): 89.1%
Relative activity compared with CNTO7160 (Human ST2-fc (human)): 188%
Kd (Human ST2-his [7]): 1.43 nM
koff (Human ST2-his [7]): 0.00255 s⁻¹
kon (Human ST2-his [7]): 1.79e+06 M⁻¹ s⁻¹
IC50, inhibition of KU812-IL5 production promoted by oxidized IL33 [8]: 0.0161 µg/mL
Maximum inhibition rate, KU812-IL5 production by oxidized IL33 [8]: 101%
Relative activity, KU812-IL5 production by oxidized IL33 [8]: 137%
B1: 5888-379-H1L0 (antibody, human IgG4 S228P, kappa, V domains shown)
VH: QVQLVQSGAEVKKPGASVKVSCKASGYTFINYGMNWVRQAPGQRLEWMGWINTYIGEPTYGDNFKGRVTITRDTSASTAYMELSSLRSEDTAVYYCAREGEGFAYWGQGTLVTVSS
VL: DIQMTQSPSSLSASVGDRVTITCKSSQSLLYSGNQNNYLAWYQQKPGKVPKLLIYGASTRESGVPSRFSGSGSGTDFTLTISSLQPEDVATYYCQNDHSYPYTFGGGTKVEIKR
notes: Humanized antibody
